B1: Azoarcus group I ribozyme (parent)
chain: GUGCCUUGCGCCGGGAAACCACGCAAGGGAUGGUGUCAAAUUCGGCGAAACCUAAGCGCCCGCCCGGGCGUAUGGCAACGCCGAGCCAAGCUUCGGCGCCUGCGCCGAUGAAGGUGUAGAGACUAGACGGCACCCACCUAAGGCAAACGCUAUGGUGAAGGCAUAGUCCAGGGAGUGGCGAAAGUCACACAAACCGG

Variants of: B1
Assay: reverse-splicing fitness (ratio to wild type); higher = more active; in vitro selection; Mg2+ level not given
How it was run: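 An in vitro group I ribozyme library with randomized positions was T7-transcribed and gel-purified. In triplicate, 10 pmol RNA in EPPS pH 7.5 was reacted with 50 pmoles of a 30-nt RNA substrate for 1 h at 37 °C across several added MgCl2 levels (1–48 mM), then stopped with EDTA. Products were reverse transcribed from a substrate-complementary primer, PCR-amplified and sequenced (HiSeq 4000). Fitness is a variant's read proportion after selection over that before, normalised to wild type.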

| Variant | reverse-splicing fitness |
| --- | --- |
| GUGCCUUGCGCCGGGAAACCACGCAAGGGAUGGUGUCAAAUUCGGCGAAACCUAAGCGCCCGCCCGGGCGUAUGGCAACGCGGAGCCAAGCUUCGGCGCCUGCGCCGAUGAAGGUGUAGAGACUAGACGGCACCCACCUAAGGCUAACGAUAUGGUGAAGGCAUAGUCGAGGGAGAGGCGAAAGUCACACAAACCGG | 0.0109 |
| GUGCCUUGCGCCGGGAAACCACGCAAGGGAUGGUGUCAAAUUCGGCGAAACCUAAGCGCCCGCCCGGGCGUAUGGCAACGCGGAGCCAAGCUUCGGCGCCUGCGCCGAUGAAGGUGUAGAGACUAGACGGCACCCACCUAAGGCUAACGAUAUGGUGAAGGCAUAGUCGAGGGAGCGGCGAAAGUCACACAAACCGG | 0.0129 |
| GUGCCUUGCGCCGGGAAACCACGCAAGGGAUGGUGUCAAAUUCGGCGAAACCUAAGCGCCCGCCCGGGCGUAUGGCAACGCGGAGCCAAGCUUCGGCGCCUGCGCCGAUGAAGGUGUAGAGACUAGACGGCACCCACCUAAGGCUAACGAUAUGGUGAAGGCAUAGUCGAGGGAGGGGCGAAAGUCACACAAACCGG | 0.00436 |
| GUGCCUUGCGCCGGGAAACCACGCAAGGGAUGGUGUCAAAUUCGGCGAAACCUAAGCGCCCGCCCGGGCGUAUGGCAACGCGGAGCCAAGCUUCGGCGCCUGCGCCGAUGAAGGUGUAGAGACUAGACGGCACCCACCUAAGGCUAACGAUAUGGUGAAGGCAUAGUCUAGGGAGUGGCGAAAGUCACACAAACCGG | 0.00756 |
| GUGCCUUGCGCCGGGAAACCACGCAAGGGAUGGUGUCAAAUUCGGCGAAACCUAAGCGCCCGCCCGGGCGUAUGGCAACGCGGAGCCAAGCUUCGGCGCCUGCGCCGAUGAAGGUGUAGAGACUAGACGGCACCCACCUAAGGCUAACGAUAUGGUGAAGGCAUAGUCUAGGGAGAGGCGAAAGUCACACAAACCGG | 0.0124 |
| GUGCCUUGCGCCGGGAAACCACGCAAGGGAUGGUGUCAAAUUCGGCGAAACCUAAGCGCCCGCCCGGGCGUAUGGCAACGCGGAGCCAAGCUUCGGCGCCUGCGCCGAUGAAGGUGUAGAGACUAGACGGCACCCACCUAAGGCUAACGAUAUGGUGAAGGCAUAGUCUAGGGAGCGGCGAAAGUCACACAAACCGG | 0.013 |
| GUGCCUUGCGCCGGGAAACCACGCAAGGGAUGGUGUCAAAUUCGGCGAAACCUAAGCGCCCGCCCGGGCGUAUGGCAACGCGGAGCCAAGCUUCGGCGCCUGCGCCGAUGAAGGUGUAGAGACUAGACGGCACCCACCUAAGGCUAACGAUAUGGUGAAGGCAUAGUCUAGGGAGGGGCGAAAGUCACACAAACCGG | 0.00507 |
| GUGCCUUGCGCCGGGAAACCACGCAAGGGAUGGUGUCAAAUUCGGCGAAACCUAAGCGCCCGCCCGGGCGUAUGGCAACGCGGAGCCAAGCUUCGGCGCCUGCGCCGAUGAAGGUGUAGAGACUAGACGGCACCCACCUAAGGCUAACGAUAUGGUGAAGGCAUAGUCCAGGGAGAGGCGAAAGUCACACAAACCGG | 0.0428 |
| GUGCCUUGCGCCGGGAAACCACGCAAGGGAUGGUGUCAAAUUCGGCGAAACCUAAGCGCCCGCCCGGGCGUAUGGCAACGCGGAGCCAAGCUUCGGCGCCUGCGCCGAUGAAGGUGUAGAGACUAGACGGCACCCACCUAAGGCUAACGAUAUGGUGAAGGCAUAGUCCAGGGAGCGGCGAAAGUCACACAAACCGG | 0.0384 |
| GUGCCUUGCGCCGGGAAACCACGCAAGGGAUGGUGUCAAAUUCGGCGAAACCUAAGCGCCCGCCCGGGCGUAUGGCAACGCGGAGCCAAGCUUCGGCGCCUGCGCCGAUGAAGGUGUAGAGACUAGACGGCACCCACCUAAGGCUAACGAUAUGGUGAAGGCAUAGUCCAGGGAGGGGCGAAAGUCACACAAACCGG | 0.0186 |
| GUGCCUUGCGCCGGGAAACCACGCAAGGGAUGGUGUCAAAUUCGGCGAAACCUAAGCGCCCGCCCGGGCGUAUGGCAACGCGGAGCCAAGCUUCGGCGCCUGCGCCGAUGAAGGUGUAGAGACUAGACGGCACCCACCUAAGGCUAACGGUAUGGUGAAGGCAUAGUCCAGGGAGUGGCGAAAGUCACACAAACCGG | 0.0473 |
| GUGCCUUGCGCCGGGAAACCACGCAAGGGAUGGUGUCAAAUUCGGCGAAACCUAAGCGCCCGCCCGGGCGUAUGGCAACGCGGAGCCAAGCUUCGGCGCCUGCGCCGAUGAAGGUGUAGAGACUAGACGGCACCCACCUAAGGCUAACGGUAUGGUGAAGGCAUAGUCAAGGGAGUGGCGAAAGUCACACAAACCGG | 0.00874 |
| GUGCCUUGCGCCGGGAAACCACGCAAGGGAUGGUGUCAAAUUCGGCGAAACCUAAGCGCCCGCCCGGGCGUAUGGCAACGCGGAGCCAAGCUUCGGCGCCUGCGCCGAUGAAGGUGUAGAGACUAGACGGCACCCACCUAAGGCUAACGGUAUGGUGAAGGCAUAGUCAAGGGAGAGGCGAAAGUCACACAAACCGG | 0.0121 |
| GUGCCUUGCGCCGGGAAACCACGCAAGGGAUGGUGUCAAAUUCGGCGAAACCUAAGCGCCCGCCCGGGCGUAUGGCAACGCGGAGCCAAGCUUCGGCGCCUGCGCCGAUGAAGGUGUAGAGACUAGACGGCACCCACCUAAGGCUAACGGUAUGGUGAAGGCAUAGUCAAGGGAGCGGCGAAAGUCACACAAACCGG | 0.0105 |
| GUGCCUUGCGCCGGGAAACCACGCAAGGGAUGGUGUCAAAUUCGGCGAAACCUAAGCGCCCGCCCGGGCGUAUGGCAACGCGGAGCCAAGCUUCGGCGCCUGCGCCGAUGAAGGUGUAGAGACUAGACGGCACCCACCUAAGGCUAACGGUAUGGUGAAGGCAUAGUCAAGGGAGGGGCGAAAGUCACACAAACCGG | 0.00553 |
